Square brackets hold non-standard residues; d marks the D form. Primed or numbered codes have the meaning given here. Ends that are not written are not given here. * marks the point of attachment. triazole = triazole formed by click reaction joining the C-terminal propargylamide to 5/6-carboxyfluorescein; Isoxazole3carbonyl(5-Me) = Cc1cc(C(=O)*)no1; Tyr(3-Cl) = N[C@@H](Cc1ccc(O)c(Cl)c1)C(=O)O; Lys(Me3) = C[N+](C)(C)CCCC[C@H](N)C(=O)O; Lys(Et2) = CCN(CC)CCCC[C@H](N)C(=O)O; triazole″ = not defined here; PEG4′ = not defined here; NH(propargyl) = C#CCN*

Broadly, the Kd is the concentration at which binding is half-saturated. As a reminder, the IC50 is the point on the concentration scale where inhibition reaches its midpoint.

Test [1] concerns the target T1, endogenous CBX7 (from cells / lysate) (human, UniProt O95931 1-251).
T1 sequence (looked up): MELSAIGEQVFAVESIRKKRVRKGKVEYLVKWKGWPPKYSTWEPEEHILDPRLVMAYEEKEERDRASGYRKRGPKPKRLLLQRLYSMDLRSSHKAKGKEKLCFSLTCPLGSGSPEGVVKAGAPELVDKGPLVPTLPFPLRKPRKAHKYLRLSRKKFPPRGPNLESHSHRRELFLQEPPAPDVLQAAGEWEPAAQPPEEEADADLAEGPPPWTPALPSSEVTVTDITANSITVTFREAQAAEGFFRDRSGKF
The test is described as follows: chemoprecipitation from HEK293T nuclear lysate, immunoblot. A general note: In western blotting, separated proteins are transferred to a membrane and probed.

In test [2] the target is T2, BRG1 (endogenous, HEK293T nuclear lysate) (human, UniProt P51532 1-1647).
T2 construct: Non-specific control of the chemoprecipitation
The description is as above.

Test [3] addresses T3, endogenous CBX4 (HEK293T nuclear lysate) (human, UniProt O00257 1-560, limits assumed).
T3 construct: Meant by 'any other paralogs' in the pulldown text
T3 sequence (looked up): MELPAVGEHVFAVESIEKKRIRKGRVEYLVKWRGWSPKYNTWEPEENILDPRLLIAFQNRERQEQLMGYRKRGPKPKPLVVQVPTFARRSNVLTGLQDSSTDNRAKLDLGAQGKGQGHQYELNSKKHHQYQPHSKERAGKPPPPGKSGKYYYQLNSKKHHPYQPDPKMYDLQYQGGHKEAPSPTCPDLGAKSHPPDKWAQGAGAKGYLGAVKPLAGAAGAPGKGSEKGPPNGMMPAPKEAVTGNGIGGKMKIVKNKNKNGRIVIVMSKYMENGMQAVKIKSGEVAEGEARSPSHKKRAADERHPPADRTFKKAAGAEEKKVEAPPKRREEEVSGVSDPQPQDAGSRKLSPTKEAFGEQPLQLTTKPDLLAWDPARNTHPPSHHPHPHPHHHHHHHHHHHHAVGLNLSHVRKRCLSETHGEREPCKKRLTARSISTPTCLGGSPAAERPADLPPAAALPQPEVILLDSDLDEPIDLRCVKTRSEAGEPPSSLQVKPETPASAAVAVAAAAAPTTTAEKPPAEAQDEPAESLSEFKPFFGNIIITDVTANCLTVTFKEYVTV
The description is as above.

Test [4] has as its target T4, endogenous CBX6 (HEK293T nuclear lysate) (human, UniProt O95503 1-412).
T4 sequence (looked up): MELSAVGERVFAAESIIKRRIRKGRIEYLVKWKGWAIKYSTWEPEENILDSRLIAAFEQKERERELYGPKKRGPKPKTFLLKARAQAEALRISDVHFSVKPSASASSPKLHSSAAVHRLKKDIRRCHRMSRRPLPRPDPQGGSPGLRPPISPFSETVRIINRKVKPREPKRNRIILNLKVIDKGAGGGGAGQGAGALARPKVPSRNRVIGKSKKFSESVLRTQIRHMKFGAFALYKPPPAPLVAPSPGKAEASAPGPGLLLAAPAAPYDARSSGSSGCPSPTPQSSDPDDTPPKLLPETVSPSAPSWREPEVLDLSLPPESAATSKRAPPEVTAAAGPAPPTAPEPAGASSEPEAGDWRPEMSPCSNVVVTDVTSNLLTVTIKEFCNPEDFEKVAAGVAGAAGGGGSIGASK
The test is described as above.

Test [5] concerns the target T5, CBX8 chromodomain (CBX8 ChD), N-terminal His6-tagged recombinant protein (UniProt Q9HC52 8-61, limits assumed).
T5 construct: domain: chromodomain; not shown: N-terminal His6 tag
T5 sequence (looked up): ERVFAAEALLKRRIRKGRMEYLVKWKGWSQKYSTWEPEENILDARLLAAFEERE
The test is described as follows: method not given.

The target in test [6] is T6, CBX7 chromodomain (CBX7 ChD), N-terminal His6-tagged recombinant protein (UniProt O95931 8-62, limits assumed).
T6 construct: domain: chromodomain; not shown: N-terminal His6 tag
T6 sequence (looked up): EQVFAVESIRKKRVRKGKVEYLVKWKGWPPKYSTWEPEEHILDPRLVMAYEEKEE
The test is described as follows: direct fluorescence titration of KED97L-FL; reference CBX8 ChD.

Test [7] has as its target T7, CBX2 chromodomain (CBX2 ChD), N-terminal His6-tagged recombinant protein (UniProt Q14781 9-66, limits assumed).
T7 construct: domain: chromodomain; Expressed in E. coli and purified on Ni-NTA; not shown: N-terminal His6 tag
T7 sequence (looked up): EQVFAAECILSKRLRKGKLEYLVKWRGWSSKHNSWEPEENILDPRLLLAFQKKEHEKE
The test is described as follows: direct fluorescence polarization, FAM-labelled ligand at 100 nM, ChD titrated.

In test [8] the target is T8, CBX4 chromodomain (CBX4 ChD), N-terminal His6-tagged recombinant protein (UniProt O00257 8-65, limits assumed).
T8 construct: domain: chromodomain; not shown: N-terminal His6 tag
T8 sequence (looked up): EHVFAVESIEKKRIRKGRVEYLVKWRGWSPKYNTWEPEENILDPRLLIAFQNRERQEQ
The description is as above.

The target of test [9] is T9, CBX6 chromodomain (CBX6 ChD), N-terminal His6-tagged recombinant protein (UniProt O95503 8-65, limits assumed).
T9 construct: domain: chromodomain; not shown: N-terminal His6 tag
T9 sequence (looked up): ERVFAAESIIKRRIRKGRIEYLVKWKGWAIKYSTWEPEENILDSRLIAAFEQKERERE
Described as above.

Test [10] has as its target T6, CBX7 chromodomain (CBX7 ChD), …. The test is described as above.
Test [11] deals with T5, CBX8 chromodomain (CBX8 ChD), …. The description is as above.
The target of test [12] is T7, CBX2 chromodomain (CBX2 ChD), …. The test is described as follows: competitive fluorescence polarization (FP) assay, displacement of the FITC-labelled probe. A general note: In fluorescence polarisation assays a small probe gives low polarisation when free and higher when bound to something large.
The target of test [13] is T8, CBX4 chromodomain (CBX4 ChD), …. The test is described as above.
Test [14] has as its target T9, CBX6 chromodomain (CBX6 ChD), …. The test is described as above.
For test [15], the target named is T6, CBX7 chromodomain (CBX7 ChD), …. Described as above.
Test [16] concerns the target T5, CBX8 chromodomain (CBX8 ChD), …. Described as above.
In test [17] the target is CBX6 chromodomain (CBX6 ChD), N-terminal His6-tagged recombinant protein (UniProt O95503). The test is described as follows: competitive fluorescence polarization, displacement of FITC-labelled probe.
For test [18], the target named is CBX7 chromodomain (CBX7 ChD), N-terminal His6-tagged recombinant protein (UniProt O95931). The test is described as above.
The target of test [19] is CBX8 chromodomain (CBX8 ChD), N-terminal His6-tagged recombinant protein (UniProt Q9HC52). The description is as above.
Test [20] addresses CBX2 chromodomain (CBX2 ChD), N-terminal His6-tagged recombinant protein (UniProt Q14781). As to the kind of experiment: competitive fluorescence polarization (FP) assay, displacement of the FITC-labelled probe.
In test [21] the target is CBX4 chromodomain (CBX4 ChD), N-terminal His6-tagged recombinant protein (UniProt O00257). Described as above.
Test [22] addresses T7, CBX2 chromodomain (CBX2 ChD), …. The test is described as follows: Thermal Shift Assay of the non-derivatized ligand.
In test [23] the target is T9, CBX6 chromodomain (CBX6 ChD), …. As to the kind of experiment: direct fluorescence polarization, fluorescein-conjugated ligand.
Test [24] concerns the target T5, CBX8 chromodomain (CBX8 ChD), …. The test is described as above.
For test [25] the target is unchanged. As to the kind of experiment: direct fluorescence polarization; reference CBX2 ChD; CBX8 is the closest paralog by Table 3.

T2 sequence (P51532 whole entry): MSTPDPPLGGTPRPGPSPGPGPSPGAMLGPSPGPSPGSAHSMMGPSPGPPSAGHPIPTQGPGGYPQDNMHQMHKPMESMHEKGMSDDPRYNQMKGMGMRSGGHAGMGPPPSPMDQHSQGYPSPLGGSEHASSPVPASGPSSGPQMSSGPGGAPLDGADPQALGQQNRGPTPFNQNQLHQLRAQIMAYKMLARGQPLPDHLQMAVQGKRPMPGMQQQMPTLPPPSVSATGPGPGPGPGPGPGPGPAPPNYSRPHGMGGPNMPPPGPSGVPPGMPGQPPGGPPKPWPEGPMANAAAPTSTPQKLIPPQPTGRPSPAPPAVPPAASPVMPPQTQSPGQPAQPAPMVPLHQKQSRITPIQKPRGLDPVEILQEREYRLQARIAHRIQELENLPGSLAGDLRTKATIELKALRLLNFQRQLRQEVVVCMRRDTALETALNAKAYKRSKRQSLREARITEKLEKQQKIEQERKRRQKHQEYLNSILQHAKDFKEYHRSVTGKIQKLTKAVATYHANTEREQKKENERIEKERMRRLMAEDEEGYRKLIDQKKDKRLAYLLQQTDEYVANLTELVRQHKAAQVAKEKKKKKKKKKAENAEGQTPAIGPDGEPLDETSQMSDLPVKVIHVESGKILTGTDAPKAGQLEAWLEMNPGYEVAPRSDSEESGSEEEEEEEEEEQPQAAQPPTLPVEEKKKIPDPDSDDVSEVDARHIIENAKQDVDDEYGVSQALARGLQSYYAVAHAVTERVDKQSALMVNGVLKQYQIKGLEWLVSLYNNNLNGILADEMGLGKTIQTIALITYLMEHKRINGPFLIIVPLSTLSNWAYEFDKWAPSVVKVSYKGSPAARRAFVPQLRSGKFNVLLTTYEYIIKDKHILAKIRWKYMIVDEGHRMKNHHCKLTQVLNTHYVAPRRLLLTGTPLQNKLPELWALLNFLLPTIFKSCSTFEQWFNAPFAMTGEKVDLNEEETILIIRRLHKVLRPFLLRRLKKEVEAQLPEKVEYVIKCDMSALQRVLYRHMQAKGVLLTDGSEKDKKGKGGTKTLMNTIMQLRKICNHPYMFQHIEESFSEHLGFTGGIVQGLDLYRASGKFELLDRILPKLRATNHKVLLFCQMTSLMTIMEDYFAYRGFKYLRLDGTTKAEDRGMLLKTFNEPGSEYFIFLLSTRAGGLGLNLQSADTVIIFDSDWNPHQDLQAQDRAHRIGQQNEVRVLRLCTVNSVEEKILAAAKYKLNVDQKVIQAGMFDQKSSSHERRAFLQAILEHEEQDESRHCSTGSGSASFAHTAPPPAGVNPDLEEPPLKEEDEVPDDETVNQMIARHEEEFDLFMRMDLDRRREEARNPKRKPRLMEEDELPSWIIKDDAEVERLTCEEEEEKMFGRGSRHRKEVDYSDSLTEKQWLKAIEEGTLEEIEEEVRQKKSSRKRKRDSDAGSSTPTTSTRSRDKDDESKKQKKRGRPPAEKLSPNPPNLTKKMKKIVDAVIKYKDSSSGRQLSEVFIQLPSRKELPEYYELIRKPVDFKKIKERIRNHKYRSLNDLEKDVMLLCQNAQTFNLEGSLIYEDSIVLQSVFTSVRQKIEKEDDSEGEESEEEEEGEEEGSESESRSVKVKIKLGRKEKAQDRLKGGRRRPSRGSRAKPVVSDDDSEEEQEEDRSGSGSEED

B1: SW2_152F-B (biotinylated SW2_152F) (peptide)
peptide: PI[Lys(Et2)]S-{PEG4′-biotin}
modifications: also: Pro1 alpha-amino modified, group not given here, non-natural monomers
Regarding B1, the binding result in test [1] is “no binding”; in [2] it was “no binding”; in test [3], “binds”; in test [4], “no binding”.

B2: KED97L-CA (chloroalkane-modified KED97L) (peptide)
peptide: {Isoxazole3carbonyl(5-Me)}-[Tyr(3-Cl)]VI[Lys(Et2)]S-{NH(propargyl)-triazole″-PEG2‑chloroalkane}
modifications: reading uncertain
Regarding B2, in [5], the Kd is 0.4 µM.

B3: KED97L-FL (peptide)
peptide: {Isoxazole3carbonyl(5-Me)}-[Tyr(3-Cl)]VI[Lys(Et2)]S-{NH(propargyl)-triazole-5/6‑FAM}
notes: also called 97L fluorescein derivative; KED97L (as measured)
In the case of B3, the “selectivity for CBX8 ChD over CBX7 ChD (fold)” value in [6] was determined as 20 fold. The Kd turned out to be 1.1 µM in [7]; 2.7 µM in test [8]; 0.26 µM in test [9]; 4.7 µM in test [10]; 0.24 µM in test [11].

B4: KED97 (peptide)
peptide: {Isoxazole3carbonyl(5-Me)}-[Tyr(3-Cl)]VI[Lys(Me3)]S-NH2
notes: Final PSL1 ligand with combined synthons
Consider B4, for which the IC50 in test [12] was 21 µM; in test [13], 49 µM; in [14] it was 4.4 µM; in test [15], 60 µM; in test [16], 9.5 µM.

B5: KED98 (PP) (peptide)
chain: [Tyr(3-Cl)]PIK(trimethyl)S-NH2
modifications: also: N-terminal acylation, acyl group not given here
Turning to B5, the IC50 in test [17] came to 34 µM; in [18], 83 µM; in test [19], 14 µM; in test [20], 46 µM; in test [21] it was 173 µM.

B6: SW2_152F (peptide)
peptide: PI[Lys(Et2)]S-{NH(propargyl)}
modifications: also: Pro1 alpha-amino modified, group not given here, non-natural monomers
notes: Non-derivatized ligand, used in the Thermal Shift Assay and in cells; also called CBX2i
Regarding B6, the Kd in test [22] stood at 0.11 µM.

B7: SW2_152F-FL (library#77) (peptide)
peptide: PI[Lys(Et2)]S
modifications: not fully specified (C-terminus); also: Pro1 alpha-amino modified, group not given here (non-natural monomer)
notes: also called fluorescein-conjugated SW2_152F
Turning to B7, the values for the Kd in test [23] and in test [24] were 9 µM and 1.9 µM, respectively. The “selectivity for CBX2 over the other paralogs (fold)” value in test [25] is at least 24 fold.

For the origin of these results see patent US20210284691A1, “CBX8 CHROMDOMAIN INHIBITORS AND THE USES THEREOF” (Purdue Research Foundation, priority 2019, published 2021).
